Here are results for one molecule from PMC7076025, “A unique DNA-binding mode of African swine fever virus AP endonuclease”.

This data set has as its target T1, AsfvAP WT (African swine fever virus, UniProt P0C9C6 1-296).
T1 sequence: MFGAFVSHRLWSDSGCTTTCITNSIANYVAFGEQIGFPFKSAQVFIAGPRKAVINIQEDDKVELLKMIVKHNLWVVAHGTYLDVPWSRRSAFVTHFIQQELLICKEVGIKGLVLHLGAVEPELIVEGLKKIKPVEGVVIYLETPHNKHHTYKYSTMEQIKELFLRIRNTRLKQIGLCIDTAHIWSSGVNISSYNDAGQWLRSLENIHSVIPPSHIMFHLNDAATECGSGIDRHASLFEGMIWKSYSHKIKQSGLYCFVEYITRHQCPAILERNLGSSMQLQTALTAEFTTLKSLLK
In words: X-ray crystallography. The note with it: protein: recombinant; tags: His-SUMO removed with Ulp1; GSGGG linker encoded before M1.

B1: DNA-2 (dsDNA)
DNA 1: GCAGCGTCACCGACGAAA
DNA 2: CCTCGTCGGGGACGCTGC
B1: the binding result is recorded as “binds”.
